Assay results published in patent publication KR20200072008A (dated 2020).

Target: SNAP25 197 from lysate of BoNT/A treated N2-42F cells (mouse, UniProt P60879 1-197)
Test: sandwich ELISA; detection of captured SNAP25 197 from N2-42F lysate

Sequence of SNAP25 197 from lysate of BoNT/A treated N2-42F cells (P60879 1-197 limits assumed): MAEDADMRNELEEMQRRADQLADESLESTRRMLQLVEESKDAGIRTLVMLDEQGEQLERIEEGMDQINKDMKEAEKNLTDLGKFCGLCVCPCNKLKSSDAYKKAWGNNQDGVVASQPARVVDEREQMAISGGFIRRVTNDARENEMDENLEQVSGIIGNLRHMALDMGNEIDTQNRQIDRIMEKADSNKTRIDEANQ

B1: C16 IgG-HRP 접합체 (antibody, V domains shown)
VH: EVQLQQSGAELARPGASVQMSCKAFGYTFTNYTMHWVRQRPGQGLEWIGFINPSSDYTNYNQKFKDKATLSADKSSSTAYMQLSSLTSEDSAVYYCARRIFYNGRTYAAMDYWGQGTSVTVSS
VL: DIVMTQSPASLAVSLGQRATISCRASKSVSSSGYSYMHWYQQKPGQPPKLLIYLASNLESGVPARFSGSGSGTDFTLNIHPVEEEDAATYYCQHSRELPLTFGAGTKLELK
binding result: binds
